Stoichiometry N data for 1 substance are collected here from PMC8617272.

The target in this experiment is AdeB from Acinetobacter baumannii (RND transporter subunit of the AdeABC efflux pump) (Acinetobacter baumannii AYE). The experiment in a line: native gel or EMSA + other: negative stain electron microscopy; AdeB reconstituted into Salipro Nanodiscs. (In general: Mobility shift assays separate free from complexed probe on a gel.)

By stoichiometry N is commonly meant a count of units in the complex or per binding partner. Consider “AdeB from Acinetobacter baumannii (RND transporter subunit of the AdeABC efflux pump) (natural protein)”, for which the stoichiometry N was determined as 3.
